This note sets out measurements from publication PMC8285061.

The target in data set [1] is T1, His6-Pal1 (Pal1-deltaN) (Saccharomyces cerevisiae, UniProt Q05518 165-499).
T1 sequence: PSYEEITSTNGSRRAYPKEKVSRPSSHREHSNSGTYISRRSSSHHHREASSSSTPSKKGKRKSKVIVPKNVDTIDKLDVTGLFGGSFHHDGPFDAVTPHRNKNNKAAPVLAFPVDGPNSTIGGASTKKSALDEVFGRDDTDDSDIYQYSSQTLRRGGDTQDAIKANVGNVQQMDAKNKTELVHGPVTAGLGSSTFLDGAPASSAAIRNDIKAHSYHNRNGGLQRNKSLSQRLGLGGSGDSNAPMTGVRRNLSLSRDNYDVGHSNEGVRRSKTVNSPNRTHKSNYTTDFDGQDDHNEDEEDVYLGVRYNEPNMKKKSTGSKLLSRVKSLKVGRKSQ
As to the kind of experiment: EMSA.

Data set [2] addresses T2, His6-Pal2 (Pal2-deltaN65) (Saccharomyces cerevisiae, UniProt P38809 65-366).
T2 sequence: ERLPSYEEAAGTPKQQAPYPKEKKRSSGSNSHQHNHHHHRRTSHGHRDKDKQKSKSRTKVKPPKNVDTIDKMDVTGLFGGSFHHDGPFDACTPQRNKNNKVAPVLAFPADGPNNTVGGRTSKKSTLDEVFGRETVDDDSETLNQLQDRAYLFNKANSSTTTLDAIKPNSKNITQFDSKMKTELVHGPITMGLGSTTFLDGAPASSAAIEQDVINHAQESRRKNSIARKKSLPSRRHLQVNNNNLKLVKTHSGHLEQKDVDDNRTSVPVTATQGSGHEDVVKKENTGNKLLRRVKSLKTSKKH
In words: EMSA.

The target of data set [3] is His6-Ypt1 (UniProt P01123 1-206). As to the kind of experiment: EMSA.
The target in data set [4] is T2, His6-Pal2 (Pal2-deltaN65). In words: competition.

Sequence of His6-Ypt1 (P01123 whole entry): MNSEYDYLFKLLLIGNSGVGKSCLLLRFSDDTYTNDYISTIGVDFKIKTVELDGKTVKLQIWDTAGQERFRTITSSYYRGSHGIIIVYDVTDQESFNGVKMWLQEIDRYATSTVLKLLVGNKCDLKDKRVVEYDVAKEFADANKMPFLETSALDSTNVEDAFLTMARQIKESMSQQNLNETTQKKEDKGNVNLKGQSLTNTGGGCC

B1: Flc-3'-BE (HAC1 3'-UTR bipartite element) (structured_RNA)
RNA: CGUGAGGUUGGCGCGCCCUCCUACAAUUAUUUGUGGCGACUGGGCAGCGACACUGAACA
Turning to B1, the binding result in data set [1] is “binds”; in data set [2] it was “binds”; in data set [3], “no binding”.

B2: unlabeled 3'-BE transcript (structured_RNA)
RNA: GGGCGUGAGGUUGGCGCGCCCUCCUACAAUUAUUUGUGGCGACUGGGCAGCGACACUGAACA
As for B2, the binding result in data set [4] is “binds”.
